Read-outs that look alike come from different tables or passages of the source.
Tests used:
[1] = biological target: epidermal growth factor receptor on live cells (human (endogenous in UM-SCC-14C and A431)) (UniProt P00533); assay: radioligand binding
[2] = biological target: epidermal growth factor receptor on live cells (human (endogenous in UM-SCC-14C and A431)) (UniProt P00533); assay: radioligand binding; remark: listed apart in the source

Substance: bi-paratopic nanobody 9G8-7D12 (bispecific antibody)
- Kd [1]: 7.5 nM
- Kd [2]: 7.1 nM

Reference: article PMC4197845
